Test results published in PMC13254535, “The RecBCD complex interacts directly with the DNA sliding clamp in Escherichia coli” (Nucleic Acids Research, 2026).

How the values were obtained:
[1] = system: E. coli BTH101 ∆recB strain (IMR04); experiment: Ciprofloxacin survival assay (complementation of BTH101 ΔrecB); assay type: cell-based, Escherichia coli; settings: expressed from pUT18C in BTH101 ΔrecB; ciprofloxacin 2–16 ng/ml, 2 h, 37°C; CFU; 2 to 3 biological replicates
Description: (§1) Non-transformed BTH101 and BTH101 ∆recB served as positive and negative controls, respectively. All strains were cultured at 30°C to early exponential phase (OD600 around 0.2, measured by Nanodrop One) before treatment.
. Cultures were incubated at 37°C with shaking for 2 h. Following treatment, cells were pelleted by centrifugation and resuspended in fresh LB medium to remove residual antibiotic and halt exposure. Cultures were then serially diluted 10-fold, and 5 µl of each dilution was spotted onto LB agar plates. After overnight incubation at 30°C, CFUs were counted. […]

[2] = system: E. coli BTH101 ∆recB strain (IMR04); experiment: UV survival assay (complementation of BTH101 ΔrecB); assay type: cell-based, Escherichia coli; settings: expressed from pUT18C in BTH101 ΔrecB; UV 5, 15 or 30 J/m^2; CFU; 2 to 3 biological replicates
Description: as §1
For UV exposure, bacterial cultures were serially diluted 10-fold in LB. From each dilution, 5 µl was spotted onto four separate LB agar plates supplemented with IPTG (0.5 mM) and the appropriate antibiotics. Once droplets had dried, one plate was kept unexposed as a control, while the remaining three plates were subjected to UV irradiation at doses of 5, 15, or 30 J/m^2 using an CL-1000 ultraviolet crosslinker (UVP). Plates were incubated overnight at 30°C, after which colony-forming units (CFUs) were counted. Survival at each UV dose was calculated as the ratio of CFUs on the UV-exposed plates to CFUs on the unexposed control plate.

ΔrecA ΔrecB cells = experiment: DNA degradation assay after UV ("reckless" DNA degradation); assay type: cell-based, Escherichia coli; settings: expressed from pUT18C in ΔrecA ΔrecB; UV 50 J/m^2, 3 h; Hoechst 33258 microscopy
Description: IMR13 (ΔrecA) served as a positive control for RecB-mediated DNA degradation, while IMR19 (ΔrecA ΔrecB) was used as a negative control.
Overnight cultures were diluted to an OD600 of 0.01 into LB medium supplemented with appropriate antibiotics and incubated with shaking at 37°C until they reached an OD600 of 0.2. Each culture was split into two 1 ml aliquots. One aliquot was fixed immediately in ethanol (50% final concentration) to assess DNA content prior to UV exposure. The second aliquot was pelleted, resuspended in 1× PBS, and exposed to UV light at a dose of 50 J/m^2 (CL-1000 Ultraviolet crosslinker, UVP). […]
Imaging was performed on a Leica DM6000 B fluorescence microscope equipped with a 100× oil immersion objective (Leica HCX Plan Apochromat 100×, 1.40 NA, PH3 CS), a Leica EL6000 metal-halide illumination system, and a Hamamatsu C9100-14 EM-CCD camera. For each sample, six fields of view were acquired, each including both phase-contrast and fluorescence channels. Fluorescence imaging was conducted using a narrow band-pass filter set optimized for CFP (Excitation: 426–446 nm; Emission: 460–500 nm; exposure time: 30 ms). All imaging parameters—including exposure time, illumination intensity, and gain—were kept constant across all strains, treatments, and replicates to ensure quantitative comparability and minimize experimental bias. […]

BTH101 ΔrecB cells = experiment: Western blot of RecB expression level; parameters: species or system Escherichia coli; settings: pUT18C constructs in BTH101 ΔrecB; Ponceau S normalized; relative to BTH101 wild type
Description: Samples, including purified RecB, β-clamp (purified as previously explained for co-immunoprecipitation), input (10 µg; 0.5%), and pull-down eluates, and samples from BTH101 cultures used in survival assays, were mixed with 1 mM dithiothreitol (DTT) and 1× NuPAGE LDS sample buffer, then heated to 75°C for 10 min. […] SeeBlue Plus2 Pre-stained Protein Standard (Invitrogen) was used as a molecular weight marker.
Proteins were transferred onto 0.2-µm nitrocellulose membranes using the Trans-Blot Turbo Transfer System (Bio-Rad), and membranes were blocked in 5% (w/v) skim milk (Merck) in PBS-T (PBS with 0.1% Tween-20) for 45–60 min at room temperature. […] Following protein transfer, these membranes were also incubated in 0.1% (w/v) Ponceau S solution for 5 min to verify transfer efficiency and account for total protein loading. The stain was visualized, imaged for densitometric normalization, and subsequently removed by washing with deionized water prior to blocking. […]
Relative RecB levels were quantified from the western blot images using Fiji (ImageJ) [58]. […] The lane profiles were plotted, and the measured signal from each lane was first normalized to the relevant Ponceau stain signal from the same lane and then to the wild-type strain.

β-clamp [3] = target: T1, β-clamp (Escherichia coli, UniProt P0A988); settings: 3-AT 0.5 mM; ~29 million interaction tests
T1 sequence (P0A988 whole entry): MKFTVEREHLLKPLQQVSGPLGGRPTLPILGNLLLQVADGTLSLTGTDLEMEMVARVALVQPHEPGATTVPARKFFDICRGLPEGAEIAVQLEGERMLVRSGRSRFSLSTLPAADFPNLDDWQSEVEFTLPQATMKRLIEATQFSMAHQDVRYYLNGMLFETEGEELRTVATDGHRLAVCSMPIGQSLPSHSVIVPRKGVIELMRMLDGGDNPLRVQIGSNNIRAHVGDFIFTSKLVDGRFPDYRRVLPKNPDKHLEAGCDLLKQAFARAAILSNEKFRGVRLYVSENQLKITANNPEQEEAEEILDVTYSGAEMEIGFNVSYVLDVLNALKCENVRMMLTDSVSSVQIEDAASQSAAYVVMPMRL
Description: Yeast-two hybrid screening was outsourced to Hybrigenics (Paris, France). This service employs a high-complexity E. coli prey library (∼3 × 10^7 clones) and follows a robust mating-based screening protocol to identify binary protein interactions. Full-length E. coli dnaN (encoding β-clamp) was cloned into the Gal4 DNA-binding domain expression vector pGBKT7, which carries LEU2 and TRP1 selection markers (bait plasmid). The dnaN bait was screened against an E. coli complementary DNA/genomic prey library provided by Hybrigenics, totaling ~29 million interaction tests. Transformants were selected on medium lacking leucine, tryptophan, and histidine, supplemented with 0.5 mM of 3-amino-1,2,4-triazole (3-AT) to suppress background growth. Positive interactions were confirmed and sequenced by Hybrigenics.

β-clamp [4] = target: T1, β-clamp; settings: N-terminally his-tagged RecB as bait, pBAD30, E. coli MG1655; anti-β-clamp western blot
Description: His-tagged recB was cloned into the pBAD30 plasmid (kind gift from Prof. Michael T. Laub, MIT and Howard Hughes Medical Institute, USA) by Dongxuan Gene Technology Co. and transformed into E. coli MG1655. An overnight culture was diluted 1:100 into 1 l of LB broth supplemented with ampicillin (100 µg/ml). When the culture reached an OD600 of 0.5, expression was induced with 0.4% (w/v) L-arabinose. After 2 h of induction at 37°C, cells were harvested by centrifugation (4000 x g, 10 min), washed with Phosphate buffered saline (PBS), and crosslinked with 1% formaldehyde for 20 min at room temperature. Crosslinking was quenched by the addition of glycine to a final concentration of 2.5 M. The cell pellets were washed three times with PBS, flash-frozen in liquid nitrogen, and stored at −80°C.
For lysis, cell pellets were resuspended in 10 ml of lysis buffer (50 mM Tris–HCl, pH 8.0; 500 mM NaCl; 10 mM β-mercaptoethanol; 1 mg/ml lysozyme) and subjected to sonication in 3 × 15-s pulses (Vibra cell, Sonics & Materials, Inc., Newtown, CT, USA). […]
After incubation for 30 min at 4°C with gentle rotation, beads were washed four times with wash buffer (50 mM sodium phosphate, pH 8.0; 300 mM NaCl; 0.01% (v/w) Tween-20). […] Beads were removed magnetically, and eluates were analyzed by SDS–polyacrylamide gel electrophoresis (PAGE). […]

[5] = system: EH219 cells (GFP-β-clamp, RecB-HaloTag); settings: unchallenged; foci within 1 pixel (0.108 µm); three biological replicates
Description: Fixed cells with endogenously tagged recB and dnaN (strain EH219) were imaged. β-clamp was N-terminally tagged with green fluorescence protein (GFP) [48]
Strains were first grown overnight on LB-agar plates with kanamycin for selection. Then, 2 ml LB with kanamycin was inoculated with five plate colonies to create overnight cultures. The next day, overnight cultures were diluted 1:200 in fresh LB medium with kanamycin and cultured at 37°C until exponential growth (OD600 of 0.10). JF549-HTL (5 µM final concentration) was then added to the culture, and incubation continued for another 60 min for staining the RecB HaloTag, before washing five times with LB. […] Samples were fixed by resuspending and incubating them in PBS with 4% (v/w) formaldehyde for 60 min, followed by washing twice with PBS and resuspension in PBS for imaging.
Briefly, we used a Nikon Eclipse Ti2-E inverted microscope equipped with a 60× oil objective, a CrestOptics X-Light V3 spinning disk confocal module (50:400 µm spinning disk), a Lumencor Celeste multi-line laser and two Teledyne Photometrics Kinetix sCMOS cameras. […] Three channels were used for fluorescence imaging: a transmitted light channel for cell outlines (1 ms exposure), in addition to GFP and JF549 fluorescence channels imaged with a 50:400 µm spinning disk. […] The foci numbers per cell were quantified along with their colocalization. […]

B1: RecB: wild type RecB subunit of the E. coli RecBCD complex (T18 fusion, his-tagged or HaloTag according to test) (protein)
chain: MSDVAETLDPLRLPLQGERLIEASAGTGKTFTIAALYLRLLLGLGGSAAFPRPLTVEELLVVTFTEAATAELRGRIRSNIHELRIACLRETTDNPLYERLLEEIDDKAQAAQWLLLAERQMDEAAVFTIHGFCQRMLNLNAFESGMLFEQQLIEDESLLRYQACADFWRRHCYPLPREIAQVVFETWKGPQALLRDINRYLQGEAPVIKAPPPDDETLASRHAQIVARIDTVKQQWRDAVGELDALIESSGIDRRKFNRSNQAKWIDKISAWAEEETNSYQLPESLEKFSQRFLEDRTKAGGETPRHPLFEAIDQLLAEPLSIRDLVITRALAEIRETVAREKRRRGELGFDDMLSRLDSALRSESGEVLAAAIRTRFPVAMIDEFQDTDPQQYRIFRRIWHHQPETALLLIGDPKQAIYAFRGADIFTYMKARSEVHAHYTLDTNWRSAPGMVNSVNKLFSQTDDAFMFREIPFIPVKSAGKNQALRFVFKGETQPAMKMWLMEGESCGVGDYQSTMAQVCAAQIRDWLQAGQRGEALLMNGDDARPVRASDISVLVRSRQEAAQVRDALTLLEIPSVYLSNRDSVFETLEAQEMLWLLQAVMTPERENTLRSALATSMMGLNALDIETLNNDEHAWDVVVEEFDGYRQIWRKRGVMPMLRALMSARNIAENLLATAGGERRLTDILHISELLQEAGTQLESEHALVRWLSQHILEPDSNASSQQMRLESDKHLVQIVTIHKSKGLEYPLVWLPFITNFRVQEQAFYHDRHSFEAVLDLNAAPESVDLAEAERLAEDLRLLYVALTRSVWHCSLGVAPLVRRRGDKKGDTDVHQSALGRLLQKGEPQDAAGLRTCIEALCDDDIAWQTAQTGDNQPWQVNDVSTAELNAKTLQRLPGDNWRVTSYSGLQQRGHGIAQDLMPRLDVDAAGVASVVEEPTLTPHQFPRGASPGTFLHSLFEDLDFTQPVDPNWVREKLELGGFESQWEPVLTEWITAVLQAPLNETGVSLSQLSARNKQVEMEFYLPISEPLIASQLDTLIRQFDPLSAGCPPLEFMQVRGMLKGFIDLVFRHEGRYYLLDYKSNWLGEDSSAYTQQAMAAAMQAHRYDLQYQLYTLALHRYLRHRIADYDYEHHFGGVIYLFLRGVDKEHPQQGIYTTRPNAGLIALMDEMFAGMTLEEA
modifications: left off: T18 (Bordetella pertussis CyaA fragment), N-terminal, kept
survival after ciprofloxacin [1]: fully restores ΔrecB strain survival to the wild-type strain (BTH101) level
survival after UV [2]: fully restores ΔrecB strain survival to the wild-type strain (BTH101) level
reckless DNA degradation after UV (ΔrecA ΔrecB cells): restored the reckless degradation phenotype, comparable to that of the ΔrecA strain
RecB expression level relative to endogenous RecB (BTH101 ΔrecB cells): more than eight times higher
yeast two-hybrid interaction with β-clamp (β-clamp [3]): possible interaction
pull-down of β-clamp (β-clamp [4]): β-clamp was pulled down and exhibited a strong band on the membrane
cells showing RecB–β-clamp colocalization [5]: around 32%
